In article PMC6854463:

Target: MPER-TM2 (gp41 residues 630-711, containing the complete TM region) (HIV-1)
Experiment: not stated; MPER-TM2 solubilized in a buffer containing β-D-octyl glucoside (β-OG); oligomeric state (Figure S5B)

## MPER-TM2 (gp41 residues 630-711, containing the complete TM region) (domain or fragment)
  stoichiometry N: 3
